Reference: PMC9482650, “Quantitative fragmentomics allow affinity mapping of interactomes” (Nature Communications, 2022)

Tests used:
Assay in all cases: holdup assay
Parameters in all cases: key: below the threshold = too weak to quantify, mostly under pKd 3.1 to 4
[1] = biological target: GIPC2, Q8TF65
[2] = biological target: T1, APBA1_1, Q02410
T1 sequence (Q02410 651-752, limits assumed, looked up): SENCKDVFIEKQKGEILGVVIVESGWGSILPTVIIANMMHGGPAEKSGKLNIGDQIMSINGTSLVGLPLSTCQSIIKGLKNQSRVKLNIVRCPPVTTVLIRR

[3] = biological target: T2, DFNB31_2, Q9P202
T2 sequence (Q9P202 274-371, limits assumed, looked up): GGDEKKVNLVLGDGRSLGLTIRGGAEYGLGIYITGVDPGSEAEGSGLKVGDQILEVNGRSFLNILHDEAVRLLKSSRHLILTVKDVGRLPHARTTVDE

[4] = biological target: TJP2_1, Q9UDY2
[5] = biological target: T3, FRMPD1, Q5SYB0
T3 sequence (Q5SYB0 52-145, limits assumed, looked up): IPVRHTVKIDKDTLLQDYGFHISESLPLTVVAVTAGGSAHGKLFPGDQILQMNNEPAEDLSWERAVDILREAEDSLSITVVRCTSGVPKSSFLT

[6] = biological target: Inadl_2, Q8NI35
[7] = biological target: DLG4_3, P78352
[8] = biological target: T4, GRIP1_5, Q9Y3R0
T4 sequence (Q9Y3R0 568-668, limits assumed, looked up): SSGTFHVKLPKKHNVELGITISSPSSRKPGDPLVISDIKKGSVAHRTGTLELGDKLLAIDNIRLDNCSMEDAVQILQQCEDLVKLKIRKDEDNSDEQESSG

[9] = biological target: MAGI2_4, Q86UL8
[10] = biological target: T5, TIAM2, Q8IVF5
T5 sequence (Q8IVF5 885-986, limits assumed, looked up): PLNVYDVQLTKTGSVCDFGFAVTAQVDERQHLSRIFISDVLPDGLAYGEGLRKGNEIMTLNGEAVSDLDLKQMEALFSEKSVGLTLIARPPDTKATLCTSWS

[11] = biological target: HTRA1, Q92743
[12] = biological target: NOS1, P29475
[13] = biological target: T6, MPDZ_10, O75970
T6 sequence (O75970 1624-1722, limits assumed, looked up): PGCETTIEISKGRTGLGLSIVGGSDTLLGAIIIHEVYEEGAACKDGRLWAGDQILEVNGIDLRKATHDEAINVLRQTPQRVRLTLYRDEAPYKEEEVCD

[14] = biological target: T7, HTRA3, P83110
T7 sequence (P83110 354-453, limits assumed, looked up): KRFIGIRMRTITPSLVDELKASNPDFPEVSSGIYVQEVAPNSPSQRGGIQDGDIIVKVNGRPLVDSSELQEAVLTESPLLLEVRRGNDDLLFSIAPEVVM

[15] = biological target: GOPC, Q9HD26
[16] = biological target: NHERF4_1, Q86UT5-2
[17] = biological target: Inadl_3, Q8NI35
[18] = biological target: Inadl_4, Q8NI35
[19] = biological target: SCRIB_2, Q14160
[20] = biological target: T8, APBA1_2, Q02410
T8 sequence (Q02410 742-832, limits assumed, looked up): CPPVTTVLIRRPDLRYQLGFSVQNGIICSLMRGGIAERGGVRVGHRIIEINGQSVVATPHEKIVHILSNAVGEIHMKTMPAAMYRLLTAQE

[21] = biological target: SCRIB_3, Q14160
[22] = biological target: T9, TJP3_3, O95049
T9 sequence (O95049 375-456, limits assumed, looked up): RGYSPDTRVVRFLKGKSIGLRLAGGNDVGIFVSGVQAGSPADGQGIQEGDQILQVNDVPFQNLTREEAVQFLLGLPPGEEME

[23] = biological target: T10, HTRA4, P83105
T10 sequence (P83105 378-476, limits assumed, looked up): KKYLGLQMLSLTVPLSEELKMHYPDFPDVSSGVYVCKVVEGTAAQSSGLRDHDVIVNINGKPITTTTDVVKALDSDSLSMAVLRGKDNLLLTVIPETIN

[24] = biological target: T11, GRIP1_4, Q9Y3R0
T11 sequence (Q9Y3R0 467-571, limits assumed, looked up): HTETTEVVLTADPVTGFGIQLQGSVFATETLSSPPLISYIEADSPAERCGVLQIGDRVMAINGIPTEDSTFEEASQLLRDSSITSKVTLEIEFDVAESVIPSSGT

[25] = biological target: Inadl_1, Q8NI35
[26] = biological target: T12, PDZRN3_1, Q9UPQ7
T12 sequence (Q9UPQ7 244-349, limits assumed, looked up): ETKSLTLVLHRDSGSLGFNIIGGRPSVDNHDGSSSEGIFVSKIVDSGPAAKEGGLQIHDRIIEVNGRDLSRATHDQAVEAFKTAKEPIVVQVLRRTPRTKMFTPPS

[27] = plain residues with an end cap or a label only (N-terminal biotin on a linker: ado-ado)
[28] = plain residues with an end cap or a label only (N-terminal biotin on a linker: ahx)

Chain of GIPC2, Q8TF65 (Q8TF65 112-203): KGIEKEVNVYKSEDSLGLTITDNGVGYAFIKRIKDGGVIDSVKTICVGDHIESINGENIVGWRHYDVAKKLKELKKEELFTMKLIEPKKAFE
Chain of DLG4_3, P78352 (P78352 306-403): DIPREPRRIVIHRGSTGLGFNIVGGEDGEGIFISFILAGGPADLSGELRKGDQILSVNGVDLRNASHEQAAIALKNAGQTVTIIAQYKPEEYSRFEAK
Chain of NOS1, P29475 (P29475 9-101): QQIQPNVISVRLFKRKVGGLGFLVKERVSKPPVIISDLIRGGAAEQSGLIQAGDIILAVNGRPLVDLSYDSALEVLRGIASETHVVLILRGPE
Chain of NHERF4_1, Q86UT5-2 (Q86UT5 other isoform, or with tags, fused parts or gaps): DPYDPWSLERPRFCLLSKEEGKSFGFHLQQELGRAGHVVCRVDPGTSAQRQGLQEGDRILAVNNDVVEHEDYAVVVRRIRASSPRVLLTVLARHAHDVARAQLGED
Chain of Inadl_1, Q8NI35 (Q8NI35 113-229): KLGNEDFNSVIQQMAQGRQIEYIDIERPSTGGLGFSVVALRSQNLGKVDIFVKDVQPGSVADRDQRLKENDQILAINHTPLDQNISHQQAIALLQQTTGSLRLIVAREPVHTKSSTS
Chain of MAGI2_4, Q86UL8 (Q86UL8 772-865): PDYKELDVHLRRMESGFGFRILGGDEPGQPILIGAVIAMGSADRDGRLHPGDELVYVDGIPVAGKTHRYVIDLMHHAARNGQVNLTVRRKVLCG
Chain of SCRIB_3, Q14160 (Q14160 999-1103): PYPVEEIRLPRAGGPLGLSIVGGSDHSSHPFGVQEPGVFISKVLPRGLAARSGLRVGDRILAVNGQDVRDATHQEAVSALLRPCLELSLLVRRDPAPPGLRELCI
Chain of HTRA1, Q92743 (Q92743 360-477): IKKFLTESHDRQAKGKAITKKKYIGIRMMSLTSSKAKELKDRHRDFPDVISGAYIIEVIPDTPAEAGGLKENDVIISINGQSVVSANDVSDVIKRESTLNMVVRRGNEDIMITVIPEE
Chain of TJP2_1, Q9UDY2 (Q9UDY2 24-128): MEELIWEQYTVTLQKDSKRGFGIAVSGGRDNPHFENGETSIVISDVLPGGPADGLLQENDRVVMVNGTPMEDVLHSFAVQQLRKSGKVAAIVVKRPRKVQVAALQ
Chain of Inadl_3, Q8NI35 (Q8NI35 359-469): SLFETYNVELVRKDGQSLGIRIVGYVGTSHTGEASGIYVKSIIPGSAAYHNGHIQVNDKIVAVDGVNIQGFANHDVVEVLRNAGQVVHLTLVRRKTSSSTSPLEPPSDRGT
Chain of Inadl_2, Q8NI35 (Q8NI35 238-335): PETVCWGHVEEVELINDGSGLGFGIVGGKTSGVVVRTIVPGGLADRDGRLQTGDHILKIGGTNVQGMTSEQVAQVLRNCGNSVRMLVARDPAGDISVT
Chain of SCRIB_2, Q14160 (Q14160 857-960): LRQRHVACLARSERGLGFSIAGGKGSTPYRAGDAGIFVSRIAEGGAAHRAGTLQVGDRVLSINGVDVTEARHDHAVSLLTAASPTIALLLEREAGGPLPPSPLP
Chain of Inadl_4, Q8NI35 (Q8NI35 547-651): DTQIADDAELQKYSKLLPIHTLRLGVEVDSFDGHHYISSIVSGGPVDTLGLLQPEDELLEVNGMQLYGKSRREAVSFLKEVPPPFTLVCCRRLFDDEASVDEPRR

B1: TRIM50, Q86XT4 (peptide)
chain: PLSPEQPTKL
- pKd [1, 27]: below the threshold
- pKd [2, 27]: below the threshold
- pKd [3, 27]: below the threshold
- pKd [4, 27]: below the threshold
- pKd [5, 27]: below the threshold
- pKd [6, 27]: below the threshold
- pKd [7, 27]: below the threshold
- pKd [8, 27]: below the threshold
- pKd [9, 27]: below the threshold
- pKd [10, 27]: below the threshold
- pKd [11, 27]: below the threshold
- pKd [12, 27]: below the threshold
- pKd [13, 27]: below the threshold
- pKd [14, 27]: below the threshold
- pKd [15, 27]: below the threshold
- pKd [16, 27]: 3.98
- pKd [17, 27]: below the threshold
- pKd [18, 27]: below the threshold
- pKd [19, 27]: below the threshold
- pKd [20, 27]: 4.06
- pKd [21, 27]: below the threshold
- pKd [22, 27]: below the threshold
- pKd [23, 27]: 3.75
- pKd [24, 27]: below the threshold
- pKd [25, 27]: below the threshold
- pKd [26, 27]: below the threshold

B2: HPV49-L2, P36762 (peptide)
chain: RRRKRKRTYL
- pKd [1, 28]: below the threshold
- pKd [2, 28]: 3.71
- pKd [3, 28]: below the threshold
- pKd [4, 28]: 5.68
- pKd [5, 28]: below the threshold
- pKd [6, 28]: below the threshold
- pKd [7, 28]: 4.26
- pKd [8, 28]: below the threshold
- pKd [9, 28]: below the threshold
- pKd [10, 28]: below the threshold
- pKd [11, 28]: 3.99
- pKd [12, 28]: 3.71
- pKd [13, 28]: 3.94
- pKd [14, 28]: below the threshold
- pKd [15, 28]: 4.3
- pKd [16, 28]: 4.69
- pKd [17, 28]: 3.72
- pKd [18, 28]: below the threshold
- pKd [19, 28]: below the threshold
- pKd [20, 28]: 3.98
- pKd [21, 28]: 3.75
- pKd [22, 28]: below the threshold
- pKd [23, 28]: 3.66
- pKd [24, 28]: 4.04
- pKd [25, 28]: below the threshold
- pKd [26, 28]: 3.51
